Reference: US20210388110A1 (published 2021)
Where a chain is given by its changes, count along the chain named. Values belong to the binder of their own block, whether it stands above or below them.

Molecular target: T1, soluble human CD3ε chain (human, UniProt P07766 23-126, limits assumed)
T1 construct: the text says soluble human CD3ε chain; also called human CD3 epsilon chain
Assay: SPR (Biacore)

T1 sequence (P07766 23-126 limits assumed): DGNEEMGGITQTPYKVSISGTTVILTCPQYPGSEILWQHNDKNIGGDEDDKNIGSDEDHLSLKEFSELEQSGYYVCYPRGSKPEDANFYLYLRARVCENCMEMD

B1: TR01H040-E22Hh/none-Hi-Kn010G3/L0204-k0 (antibody, human IgG1, kappa, L234A L235A, N297A)
heavy: QVQLVESGGGLVQPGRSLRLSCAASGFTFSNAWMHWVRQAPGKGLEWVAQIKDKSQNYATYYAESVKGRFTISRADSKNSIYLQMNSLKTEDTAVYYCRYVHYSASYGVDAWGQGTTVTVSSASTKGPSVFPLAPSSKSTSGGTAALGCLVKDYFPEPVTVSWNSGALTSGVHTFPAVLQSSGLYSLSSVVTVPSSSLGTQTYICNVNHKPSNTKVDKKVEPKSCDKTHTCPPCPAPEAAGGPSVFLFPPKPKDTLMISRTPEVTCVVVDVSHEDPEVKFNWYVDGVEVHNAKTKPREEQYASTYRVVSVLTVLHQDWLNGKEYKCKVSNKALPAPIEKTISKAKGQPREPQVYTLPPSRCELTKNQVSLSCAVKGFYPSDIAVEWESNGQPENNYKTTPPVLDSDGSFFLVSKLTVDKSRWQQGNVFSCSVMHEALHNHYTQKSLSLSPDYKDDDDK
chain: EPKSSDKTHTCPPCPAPELLGGPSVFLFPPKPKDTLMISRTPEVTCVVVDVSHEDPEVKFNWYVDGVEVHNAKTKPREEQYNSTYRVVSVLTVLHQDWLNGKEYKCKVSNKALPAPIEKTISKAKGQPREPQVCTLPPSRDELTKNQVSLWCLVKGFYPSDIAVEWESNGQPENNYKTTPPVLDSDGSFFLYSKLTVDKSRWQQGNVFSCSVMHEALHNRYTQKSLSLSP
light: DIVMTQSPLSLPVTPGEPASISCRSSQSPVHSNRNTYLHWYQQKPGQAPRLLIYKVSNRFRGVPDRFSGSGSGTDFTLKISRVEAEDVGVYYCGQGTQVPYTFGQGTKLEIKRTVAAPSVFIFPPSDEQLKSGTASVVCLLNNFYPREAKVQWKVDNALQSGNSQESVTEQDSKDSTYSLSSTLTLSKADYEKHKVYACEVTHQGLSSPVTKSFNRGEC
notes: single-arm
Kd: 22.1 nM

B4: TR01H040-E22Hh/none-Hi-Kn010G3/L0243-k0 (antibody, human IgG1, kappa, L234A L235A, N297A)
heavy: B1 heavy
chain: B1 chain
light: B1 light with Q27E, S28P
notes: single-arm
Kd: 24.6 nM

B5: TR01H040-E22Hh/none-Hi-Kn010G3/L0233-k0 (antibody, human IgG1, kappa, L234A L235A, N297A)
heavy: B1 heavy
chain: B1 chain
light: B1 light with S28E, P29L, R61S
notes: single-arm
Kd: 40.1 nM

B8: TR01H040-E22Hh/none-Hi-Kn010G3/L0250-k0 (antibody, human IgG1, kappa, L234A L235A, N297A)
heavy: B1 heavy
chain: B1 chain
light: B1 light with S25P, L38I, H39Q, R61S, G94I
notes: single-arm
Kd: 21.5 nM

B9: TR01H040-E22Hh/none-Hi-Kn010G3/L0262-k0 (antibody, human IgG1, kappa, L234A L235A, N297A)
heavy: B1 heavy
chain: B1 chain
light: B1 light with S28P, R61S, G94A
notes: single-arm
Kd: 18.1 nM

B10: TR01H040-E22Hh/none-Hi-Kn010G3/L0217-k0 (antibody, human IgG1, kappa, L234A L235A, N297A)
heavy: B1 heavy
chain: B1 chain
light: B1 light with S25P, P29L
notes: single-arm
Kd: 20.7 nM

B15: TR01H040-E22Hh/none-Hi-Kn010G3/L0214-k0 (antibody, human IgG1, kappa, L234A L235A, N297A)
heavy: B1 heavy
chain: B1 chain
light: B1 light with S28P
notes: single-arm
Kd: 20.2 nM

B16: TR01H040-E22Hh/none-Hi-Kn010G3/L0205-k0 (antibody, human IgG1, kappa, L234A L235A, N297A)
heavy: B1 heavy
chain: B1 chain
light: B1 light with R61W
notes: single-arm
Kd: 34.2 nM

B18: TR01H040-E22Hh/none-Hi-Kn010G3/L0222-k0 (antibody, human IgG1, kappa, L234A L235A, N297A)
heavy: B1 heavy
chain: B1 chain
light: B1 light with L38I, H39Q, R61S, G94Y
notes: single-arm
Kd: 46.5 nM

B22: TR01H040-E22Hh/none-Hi-Kn010G3/L0239-k0 (antibody, human IgG1, kappa, L234A L235A, N297A)
heavy: B1 heavy
chain: B1 chain
light: B1 light with Q27E
notes: single-arm
Kd: 23.1 nM

B24: TR01H040-E22Hh/none-Hi-Kn010G3/L0232-k0 (antibody, human IgG1, kappa, L234A L235A, N297A)
heavy: B1 heavy
chain: B1 chain
light: B1 light with Q27E, P29L, R61S
notes: single-arm
Kd: 38.6 nM

B25: TR01H040-E22Hh/none-Hi-Kn010G3/L0213-k0 (antibody, human IgG1, kappa, L234A L235A, N297A)
heavy: B1 heavy
chain: B1 chain
light: B1 light with L38I
notes: single-arm
Kd: 20.1 nM

B28: TR01H040-E22Hh/none-Hi-Kn010G3/L0216-k0 (antibody, human IgG1, kappa, L234A L235A, N297A)
heavy: B1 heavy
chain: B1 chain
light: B1 light with S28P, P29L
notes: single-arm
Kd: 25.3 nM

B29: TR01H040-E22Hh/none-Hi-Kn010G3/L0228-k0 (antibody, human IgG1, kappa, L234A L235A, N297A)
heavy: B1 heavy
chain: B1 chain
light: B1 light with L38I, R61S, G94V
notes: single-arm
Kd: 16 nM

B31: TR01H040-E22Hh/none-Hi-Kn010G3/L0215-k0 (antibody, human IgG1, kappa, L234A L235A, N297A)
heavy: B1 heavy
chain: B1 chain
light: B1 light with S28P, L38I, R61S
notes: single-arm
Kd: 33.7 nM

B33: TR01H040-E22Hh/none-Hi-Kn010G3/L0219-k0 (antibody, human IgG1, kappa, L234A L235A, N297A)
heavy: B1 heavy
chain: B1 chain
light: B1 light with P29L, L38I
notes: single-arm
Kd: 39.4 nM

B35: TR01H040-E22Hh/none-Hi-Kn010G3/L0234-k0 (antibody, human IgG1, kappa, L234A L235A, N297A)
heavy: B1 heavy
chain: B1 chain
light: B1 light with S28E
notes: single-arm
Kd: 24 nM

Binders with a lower Kd, results first:

Kd: 2.91 nM
B2: TR01H040-E22Hh/none-Hi-Kn010G3/L0238-k0 (antibody, human IgG1, kappa, L234A L235A, N297A)
heavy: B1 heavy
chain: B1 chain
light: B1 light with Q27E, S28P, R61S, G94Y
notes: single-arm

Kd: 2.17 nM
B3: TR01H040-E22Hh/none-Hi-Kn010G3/L0212-k0 (antibody, human IgG1, kappa, L234A L235A, N297A)
heavy: B1 heavy
chain: B1 chain
light: B1 light with S25P, R61S, G94Y
notes: single-arm

Kd: 3.58 nM
B6: TR01H040-E22Hh/none-Hi-Kn010G3/L0242-k0 (antibody, human IgG1, kappa, L234A L235A, N297A)
heavy: B1 heavy
chain: B1 chain
light: B1 light with Q27E, L38I, R61S, G94Y
notes: single-arm

Kd: 3.48 nM
B7: TR01H040-E22Hh/none-Hi-Kn010G3/L0241-k0 (antibody, human IgG1, kappa, L234A L235A, N297A)
heavy: B1 heavy
chain: B1 chain
light: B1 light with Q27E, R61W, G94Y
notes: single-arm

Kd: 5.64 nM
B11: TR01H040-E22Hh/none-Hi-Kn010G3/L0236-k0 (antibody, human IgG1, kappa, L234A L235A, N297A)
heavy: B1 heavy
chain: B1 chain
light: B1 light with S28E, R61W, G94Y
notes: single-arm

Kd: 7.75 nM
B12: TR01H040-E22Hh/none-Hi-Kn010G3/L0231-k0 (antibody, human IgG1, kappa, L234A L235A, N297A)
heavy: B1 heavy
chain: B1 chain
light: B1 light with L38I, R61S, G94Y, V99W
notes: single-arm

Kd: 4.25 nM
B13: TR01H040-E22Hh/none-Hi-Kn010G3/L0209-k0 (antibody, human IgG1, kappa, L234A L235A, N297A)
heavy: B1 heavy
chain: B1 chain
light: B1 light with L38I, R61S, G94Y
notes: single-arm

Kd: 2.9 nM
B14: TR01H040-E22Hh/none-Hi-Kn010G3/L0206-k0 (antibody, human IgG1, kappa, L234A L235A, N297A)
heavy: B1 heavy
chain: B1 chain
light: B1 light with R61S, G94Y
notes: single-arm

Kd: 9.15 nM
B17: TR01H040-E22Hh/none-Hi-Kn010G3/L0220-k0 (antibody, human IgG1, kappa, L234A L235A, N297A)
heavy: B1 heavy
chain: B1 chain
light: B1 light with S28P, P29L, G94Y
notes: single-arm

Kd: 2.17 nM
B19: TR01H040-E22Hh/none-Hi-Kn010G3/L0240-k0 (antibody, human IgG1, kappa, L234A L235A, N297A)
heavy: B1 heavy
chain: B1 chain
light: B1 light with Q27E, R61S, G94Y
notes: single-arm

Kd: 8.2 nM
B20: TR01H040-E22Hh/none-Hi-Kn010G3/L0218-k0 (antibody, human IgG1, kappa, L234A L235A, N297A)
heavy: B1 heavy
chain: B1 chain
light: B1 light with P29L, G94Y
notes: single-arm

Kd: 2.81 nM
B21: TR01H040-E22Hh/none-Hi-Kn010G3/L0235-k0 (antibody, human IgG1, kappa, L234A L235A, N297A)
heavy: B1 heavy
chain: B1 chain
light: B1 light with S28E, R61S, G94Y
notes: single-arm

Kd: 5.06 nM
B23: TR01H040-E22Hh/none-Hi-Kn010G3/L0224-k0 (antibody, human IgG1, kappa, L234A L235A, N297A)
heavy: B1 heavy
chain: B1 chain
light: B1 light with L38I, R61P, G94Y
notes: single-arm

Kd: 4.16 nM
B26: TR01H040-E22Hh/none-Hi-Kn010G3/L0208-k0 (antibody, human IgG1, kappa, L234A L235A, N297A)
heavy: B1 heavy
chain: B1 chain
light: B1 light with R61W, G94Y
notes: single-arm

Kd: 10.2 nM
B27: TR01H040-E22Hh/none-Hi-Kn010G3/L0237-k0 (antibody, human IgG1, kappa, L234A L235A, N297A)
heavy: B1 heavy
chain: B1 chain
light: B1 light with S28E, L38I, R61S, G94Y
notes: single-arm

Kd: 5.06 nM
B30: TR01H040-E22Hh/none-Hi-Kn010G3/L0210-k0 (antibody, human IgG1, kappa, L234A L235A, N297A)
heavy: B1 heavy
chain: B1 chain
light: B1 light with N35W, R61S, G94Y
notes: single-arm

Kd: 2.6 nM
B32: TR01H040-E22Hh/none-Hi-Kn010G3/L0207-k0 (antibody, human IgG1, kappa, L234A L235A, N297A)
heavy: B1 heavy
chain: B1 chain
light: B1 light with G94Y
notes: single-arm

Kd: 3.22 nM
B34: TR01H040-E22Hh/none-Hi-Kn010G3/L0211-k0 (antibody, human IgG1, kappa, L234A L235A, N297A)
heavy: B1 heavy
chain: B1 chain
light: B1 light with S28P, R61S, G94Y
notes: single-arm

Kd: 8.15 nM
B36: TR01H040-E22Hh/none-Hi-Kn010G3/L0223-k0 (antibody, human IgG1, kappa, L234A L235A, N297A)
heavy: B1 heavy
chain: B1 chain
light: B1 light with L38I, F60L, R61S, G94Y
notes: single-arm
